Measurements as given in the supplement of paper PMC6379048.

Legend:
Experiment in all cases: EC50 of free RNA motif oligo competing protein binding to immobilised probe
CPSF3 = target: T1, CPSF3 (UniProt Q9UKF6)
T1 sequence: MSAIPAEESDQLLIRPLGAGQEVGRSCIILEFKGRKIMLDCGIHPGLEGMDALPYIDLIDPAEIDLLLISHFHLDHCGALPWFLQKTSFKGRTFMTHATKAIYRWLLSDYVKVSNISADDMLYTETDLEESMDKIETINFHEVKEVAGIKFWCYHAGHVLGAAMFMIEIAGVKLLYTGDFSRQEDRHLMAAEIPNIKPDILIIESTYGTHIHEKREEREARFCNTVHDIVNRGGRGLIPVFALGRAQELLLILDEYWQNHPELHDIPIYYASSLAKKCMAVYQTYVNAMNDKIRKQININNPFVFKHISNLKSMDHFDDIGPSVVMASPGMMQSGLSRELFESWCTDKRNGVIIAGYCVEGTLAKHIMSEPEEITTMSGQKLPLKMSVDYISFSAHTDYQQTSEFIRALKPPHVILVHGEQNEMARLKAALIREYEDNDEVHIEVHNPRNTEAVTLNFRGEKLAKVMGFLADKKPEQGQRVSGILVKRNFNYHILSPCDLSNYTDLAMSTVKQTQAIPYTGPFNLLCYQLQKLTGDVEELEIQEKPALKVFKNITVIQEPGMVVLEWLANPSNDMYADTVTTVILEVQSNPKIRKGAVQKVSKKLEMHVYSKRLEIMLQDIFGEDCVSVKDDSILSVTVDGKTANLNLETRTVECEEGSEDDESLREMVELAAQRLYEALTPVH
Method in brief: (§1)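 HEK293-FT lysate (2.5 mg protein/well) was pre-incubated 1 h at 4°C with free RNA oligos (0 nM to 30 μM), then 30 min at 4°C with the same 5′-amino-C6 oligos coupled to NHS-Sepharose beads. Bound proteins were quantified by label-free LC-MS/MS in three biological replicates and two independent experiments, and normalised to the water control. EC50 came from a four-parameter log-logistic fit; Kd is EC50 times a protein-dependent depletion factor.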

HNRNPD = target: T2, HNRNPD (UniProt Q14103)
T2 sequence: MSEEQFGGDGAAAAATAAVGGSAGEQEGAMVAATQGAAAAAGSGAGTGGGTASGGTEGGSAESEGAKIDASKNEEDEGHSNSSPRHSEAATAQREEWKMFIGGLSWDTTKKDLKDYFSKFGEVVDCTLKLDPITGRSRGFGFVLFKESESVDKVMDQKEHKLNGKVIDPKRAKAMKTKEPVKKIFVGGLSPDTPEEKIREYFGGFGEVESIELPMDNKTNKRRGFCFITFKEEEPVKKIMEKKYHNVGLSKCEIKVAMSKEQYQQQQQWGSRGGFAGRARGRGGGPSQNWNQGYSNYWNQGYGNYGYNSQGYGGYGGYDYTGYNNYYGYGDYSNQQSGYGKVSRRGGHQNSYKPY
Method in brief: as §1

LSM6 = target: T3, LSM6 (UniProt P62312)
T3 sequence: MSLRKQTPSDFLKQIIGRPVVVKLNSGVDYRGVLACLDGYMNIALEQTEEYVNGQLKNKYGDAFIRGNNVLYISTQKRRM
Method in brief: as §1

MEX3B = target: T4, MEX3B (UniProt Q6ZN04)
T4 sequence: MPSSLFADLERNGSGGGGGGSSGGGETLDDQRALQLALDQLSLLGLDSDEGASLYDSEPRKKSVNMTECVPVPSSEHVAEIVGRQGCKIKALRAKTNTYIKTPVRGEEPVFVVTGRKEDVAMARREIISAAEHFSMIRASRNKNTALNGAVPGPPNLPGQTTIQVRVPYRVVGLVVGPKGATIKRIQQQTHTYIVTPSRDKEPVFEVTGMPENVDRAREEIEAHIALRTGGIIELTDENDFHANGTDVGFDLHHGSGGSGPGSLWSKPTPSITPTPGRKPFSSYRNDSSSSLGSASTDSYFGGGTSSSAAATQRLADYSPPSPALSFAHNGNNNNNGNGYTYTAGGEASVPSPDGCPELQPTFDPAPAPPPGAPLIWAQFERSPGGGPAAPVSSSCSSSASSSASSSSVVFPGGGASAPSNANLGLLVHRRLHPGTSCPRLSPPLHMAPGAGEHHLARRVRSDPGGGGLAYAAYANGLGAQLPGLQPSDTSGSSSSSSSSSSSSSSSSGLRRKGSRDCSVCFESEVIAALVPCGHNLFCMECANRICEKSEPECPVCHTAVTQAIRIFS
Method in brief: as §1

MSI1 = MSI1 (UniProt O43347)
Method in brief: as §1

MSI2 = MSI2 (UniProt Q96DH6)
Method in brief: as §1

NCL = NCL (UniProt P19338)
Method in brief: as §1

SRSF9 = SRSF9 (UniProt Q13242)
Method in brief: as §1

SSB = target: T5, SSB (UniProt P05455)
T5 sequence: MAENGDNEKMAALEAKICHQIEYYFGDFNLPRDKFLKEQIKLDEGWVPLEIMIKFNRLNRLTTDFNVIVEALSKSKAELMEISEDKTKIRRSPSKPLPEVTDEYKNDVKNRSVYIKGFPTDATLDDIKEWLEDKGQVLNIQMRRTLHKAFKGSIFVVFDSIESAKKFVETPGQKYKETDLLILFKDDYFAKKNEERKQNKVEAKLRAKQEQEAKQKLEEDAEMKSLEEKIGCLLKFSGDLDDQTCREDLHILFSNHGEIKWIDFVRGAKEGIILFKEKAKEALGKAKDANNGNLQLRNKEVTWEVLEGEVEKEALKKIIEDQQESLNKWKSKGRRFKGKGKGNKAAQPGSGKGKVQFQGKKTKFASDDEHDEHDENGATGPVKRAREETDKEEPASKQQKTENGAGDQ
Method in brief: as §1

Chain of NCL (P19338 whole entry): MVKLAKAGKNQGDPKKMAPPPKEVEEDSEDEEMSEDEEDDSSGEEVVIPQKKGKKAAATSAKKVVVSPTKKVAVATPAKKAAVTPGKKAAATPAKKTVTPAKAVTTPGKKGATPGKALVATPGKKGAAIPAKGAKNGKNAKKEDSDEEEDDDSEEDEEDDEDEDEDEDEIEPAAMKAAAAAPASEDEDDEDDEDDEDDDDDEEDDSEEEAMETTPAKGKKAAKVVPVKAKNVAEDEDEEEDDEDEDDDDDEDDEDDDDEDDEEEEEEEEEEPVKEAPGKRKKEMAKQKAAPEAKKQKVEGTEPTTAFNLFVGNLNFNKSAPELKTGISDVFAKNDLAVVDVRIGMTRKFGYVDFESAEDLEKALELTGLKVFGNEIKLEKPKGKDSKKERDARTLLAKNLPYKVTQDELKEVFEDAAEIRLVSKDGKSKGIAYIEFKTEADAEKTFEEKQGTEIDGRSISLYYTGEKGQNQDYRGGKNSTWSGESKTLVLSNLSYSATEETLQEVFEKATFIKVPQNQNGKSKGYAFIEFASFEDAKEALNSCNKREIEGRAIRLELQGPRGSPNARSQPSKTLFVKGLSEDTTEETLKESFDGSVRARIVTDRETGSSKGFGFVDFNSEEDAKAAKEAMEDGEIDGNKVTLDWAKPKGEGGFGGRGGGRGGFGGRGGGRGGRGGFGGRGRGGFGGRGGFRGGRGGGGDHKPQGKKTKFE
Chain of MSI2 (Q96DH6 whole entry): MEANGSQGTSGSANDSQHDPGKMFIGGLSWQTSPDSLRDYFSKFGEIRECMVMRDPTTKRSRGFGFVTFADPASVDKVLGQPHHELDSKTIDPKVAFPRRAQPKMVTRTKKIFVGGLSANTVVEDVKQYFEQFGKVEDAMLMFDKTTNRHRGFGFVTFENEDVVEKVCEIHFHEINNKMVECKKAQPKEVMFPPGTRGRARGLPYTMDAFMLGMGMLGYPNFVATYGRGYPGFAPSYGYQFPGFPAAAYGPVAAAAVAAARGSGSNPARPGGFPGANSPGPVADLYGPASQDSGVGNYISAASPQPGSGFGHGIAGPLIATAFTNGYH
Chain of SRSF9 (Q13242 whole entry): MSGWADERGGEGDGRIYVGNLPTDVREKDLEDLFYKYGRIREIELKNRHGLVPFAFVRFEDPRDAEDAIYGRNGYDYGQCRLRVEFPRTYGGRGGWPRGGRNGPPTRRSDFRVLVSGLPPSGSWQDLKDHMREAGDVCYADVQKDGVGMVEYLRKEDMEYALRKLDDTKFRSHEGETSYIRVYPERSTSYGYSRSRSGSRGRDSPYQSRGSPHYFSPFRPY
Chain of MSI1 (O43347 whole entry): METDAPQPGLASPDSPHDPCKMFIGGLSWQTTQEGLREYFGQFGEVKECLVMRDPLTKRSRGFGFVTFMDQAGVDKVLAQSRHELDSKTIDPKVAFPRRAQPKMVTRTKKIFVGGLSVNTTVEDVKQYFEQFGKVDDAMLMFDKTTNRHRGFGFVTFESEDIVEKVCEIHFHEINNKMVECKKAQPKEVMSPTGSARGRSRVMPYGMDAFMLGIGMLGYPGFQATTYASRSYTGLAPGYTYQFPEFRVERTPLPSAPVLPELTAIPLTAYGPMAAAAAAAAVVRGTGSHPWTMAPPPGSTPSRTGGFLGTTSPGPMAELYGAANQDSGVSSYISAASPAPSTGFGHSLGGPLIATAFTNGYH

Row | Sequence | EC50 (CPSF3) [nM] | EC50 (HNRNPD) [nM] | EC50 (LSM6) [nM] | EC50 (MEX3B) [nM] | EC50 (MSI1) [nM] | EC50 (MSI2) [nM] | EC50 (NCL) [nM] | EC50 (SRSF9) [nM] | EC50 (SSB) [nM]
1 | UAUUUAU | 598 | 653 | 447 | 728 | 487 | 803 | 2170 | 8030 | 300
2 | AAUAAA | 57.4 | 6520 | 797 | 1640 | 3500 | 826 | – | – | –
3 | CUGUCCU | – | – | – | – | – | – | 321 | 4530 | 2640
